T1: ALPI (screening and SPR/ELISA protein) (UniProt P09923 20-503, limits assumed)
T1 sequence (looked up): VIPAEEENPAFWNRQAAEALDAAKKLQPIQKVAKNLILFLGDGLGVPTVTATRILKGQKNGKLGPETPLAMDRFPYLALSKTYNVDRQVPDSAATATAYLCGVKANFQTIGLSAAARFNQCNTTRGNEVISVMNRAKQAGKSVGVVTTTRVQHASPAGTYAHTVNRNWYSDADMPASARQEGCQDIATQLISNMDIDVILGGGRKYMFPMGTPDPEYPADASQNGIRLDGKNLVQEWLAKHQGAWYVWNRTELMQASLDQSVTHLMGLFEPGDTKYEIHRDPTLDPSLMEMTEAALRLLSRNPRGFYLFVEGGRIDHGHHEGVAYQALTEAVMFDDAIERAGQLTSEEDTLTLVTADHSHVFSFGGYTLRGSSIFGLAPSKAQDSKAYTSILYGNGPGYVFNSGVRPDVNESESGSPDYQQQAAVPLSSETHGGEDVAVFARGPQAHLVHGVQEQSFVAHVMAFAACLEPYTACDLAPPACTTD

T2: human ALPPL2 (recombinant protein) (human, UniProt P10696 20-503)
T2 chain: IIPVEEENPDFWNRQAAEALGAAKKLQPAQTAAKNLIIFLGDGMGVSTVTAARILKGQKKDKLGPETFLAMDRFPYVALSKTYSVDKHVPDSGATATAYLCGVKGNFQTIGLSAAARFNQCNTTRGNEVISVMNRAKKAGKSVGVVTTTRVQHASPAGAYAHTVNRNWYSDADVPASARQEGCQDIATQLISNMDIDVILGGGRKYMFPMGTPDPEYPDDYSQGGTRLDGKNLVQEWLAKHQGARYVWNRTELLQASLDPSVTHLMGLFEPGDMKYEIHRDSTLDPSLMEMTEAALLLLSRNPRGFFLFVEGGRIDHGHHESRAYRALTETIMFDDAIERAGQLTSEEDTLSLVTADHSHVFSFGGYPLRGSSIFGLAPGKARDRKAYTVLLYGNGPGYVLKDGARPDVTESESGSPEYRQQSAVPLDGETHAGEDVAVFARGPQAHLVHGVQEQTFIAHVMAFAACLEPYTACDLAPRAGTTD


Legend:
[1] = biological target: T1, ALPI (screening and SPR/ELISA protein); assay: screen of rabbit B-cell clones by ELISA and FACS
Text: (§1) Specific clones were screened and identified by ELISA and high throughput flow cytometry (FIG. 3). Rabbit kidney cells were transfected with either truncated (for ELISA screen) or full-length (for FACS screen) ALPI and ALPPL2.

[2] = biological target: T3, human ALPPL2 (recombinant protein) (human, UniProt P10696 20-503, limits assumed); assay: screen of rabbit B-cell clones by ELISA and FACS
T3 construct: biotinylated where captured on streptavidin
Text: as §1

[3] = biological target: T2, human ALPPL2 (recombinant protein); assay: BLI; single concentration

Binder	binding result [1]	binding result [2]	Kd [3] [nM]
AB1C11 (antibody, V domains shown, Rabbit antibody cloned from a single B cell) VH: QSLEESGGDLVKPGASLTLTCKASGFTISSIWICWVRQAPGKGLEWIACIYAGSDGGSYYASWARGRFTISKTSSTTVTLQMTSLTAADTATYFCARASNSWQYGYAGYGNYKDYFNLWGPGTLVTVSS VL: FELTQTPSSVEAVVGGTVTINCQASESISNLLAWYQQKSGQPPKVLIYKASALPSGVSSRFKGSGSGTEFTLTISDLECADAATYYCQSYYGSSDTGNTFGGGTEVVVK	no binding	binds	–
AB1C18 (antibody, V domains shown, Rabbit antibody cloned from a single B cell) VH: QSLEESGGDLVKPGASLTLTCTASGFSFSSYWTCWVRQAPGKGLEWLGCTDGGSSGDTYYATWAKGRVAISKTSSTTVTLQVTSLTAADTATYFCARNLITWDLWGPGTLVTVSS VL: IVMTQTPSSKSVPVGDTVTINCQASESVYNNNQLSWFQQKPGQPPKLLIYWASKLASGVPSRFKGSGSGTQFTLTISDVVCDDAATYYCAGYKSSITDGNAFGGGTEVVVK	no binding	binds	1.4
AB1C14 (antibody, V domains shown, Rabbit antibody cloned from a single B cell) VH: QSLEESGGDLVKPGASLTLTCTASGFSFSSNYWICWVRQAPGKGLEWIACIATGSSGSTYYASWAKGRFTISKTSSTTVTLQMTSLTAADTATYFCARGEYTYGYVEYAIVTQYYFDLWGPGTLVTVSS VL: FEMTQTPSSVSAAVGGTVTINCQASQNIYSNLAWYQQKPGQRPKLLIYGASNLESGVPSRFKGSGSGTEYTLTISDLECDDAATYYCQSADYIGSAYNAFGGGTEVVVK	no binding	binds	–
AB1C32 (antibody, V domains shown, Rabbit antibody cloned from a single B cell) VH: QEQLEESGGDLVKPGGTLTLTCKASGIDFSSDYYMCWVRQAPGKGLEWIACIYTGSSDDTYYASWAKGRFTISKTSSPTVALQMTSLTAADTATYFCARGGYGGKDLWGPGTLVTVSS VL: VVMTQTPASVEAAVGGTVTIKCQASQSIGSLLAWYQQKPGQPPNLLIYWASTLASGVPSRFKGSGSGTEFTLTISDLECDDAATYYCQCTYGSSGSSSYLNAFGGGTEVVVK	no binding	binds	–
AB2C103 (antibody, V domains shown, Rabbit antibody cloned from a single B cell) VH: QSLEESGGDLVKPGASLTLTCTASGFDFSSYYWICWVRQAPGKGLEWIACIYGGSSGSTYYATWAKGRFTISETSSTTVTLQMTSLTAADMATYFCARSLYTWRYADYAASTLNLWGPGTLVTVSS VL: AVLTQTPSPVSAAVGGTVSISCQSSQSVYNVNLLAWYQQKPGQPPKLLIYETSKLESGVPSRFSGSGSGTQFTLTISDVQCDDAATYYCAGGYSSSKDNSFGGGTEVVVK	no binding	binds	–
AB1C13 (antibody, V domains shown, Rabbit antibody cloned from a single B cell) VH: QEQLEESGGDLVKPEGSLTLTCTASGFSFSWICWVRQAPGKGLEWIACIYAGSSAKTYYASWAKGRFTISKASSTTVTLQMTSLTAADTATYFCARASNYYRYGVAGYADYTGYFNLWGPGTLVTVSS VL: FELTQTPASVEAAVGGTVTIKCQASQSISSWLAWYHQKPGQRPKLLIYGTSTLASGVPSRFKGSGSGTEFTLTISDLECADAATYYCQNYGGSSSGDAFGGGTEVVVK	no binding	–	–
AB1C35 (antibody, V domains shown, Rabbit antibody cloned from a single B cell) VH: QEQLKESGGDLVKPGASLTLTCTASGFTLSTYWVCWVRQAPGKGLEWIGCIDTVSSGDTYFASWAKGRFTGSKTSSTTVTLQMTSLTAADTATYFCARRTGSRWTLWGPGTLVTVSS VL: QVLTQTPSSVSAGVGGTVTINCQASESVYNNNYLSWYQQKPGQPPKLLIYQASTLASGVPSRFKGSGSGTQFTLTISDVQCDDAATYYCLGAFVSNGWYFAFGGGTEVVVK	no binding	binds	4.1
AB1C17 (antibody, V domains shown, Rabbit antibody cloned from a single B cell) VH: QEQLKESGGDLVKPGASLTLTCTASGFTLSTYWVCWVRQAPGKGLEWIGCIDTVSSGDTYFASWAKGRFTGSKTSSTTVTLQMTSLTAADTATYFCARRTGSGWTLWGPGTLVTVSS VL: LVMTQTPSPVSAAVGGTVTISCQSSQSVYNNNYLAWFQQNPGQPPKLLIYWASKLASGVPSRFKGSGSGTQFTLTISDVQCDDAATYYCLGAYVSNGWYFAFGGGTEVVVK	no binding	binds	–

The next lines start with the values.

binding result [1]	binding result [2]	Kd [3] [nM]	Binder
no binding	binds	–	AB1C34 (antibody, V domains shown, Rabbit antibody cloned from a single B cell) VH: QSLEESGGDLVKPGASLTLTCTASGFDFSSNGMCWVRQAPGKGLEWIACIYVDSSDSTYYASWVNGRFTISKTSSTTVTLQMTSLTAADTATYFCARGYGYVGSAMDLWGQGTLVTVSS VL: NIVMTQTPSPVSGAVGGTVTIKCQASQSISNELAWFQQKPGQRPKLLIYGASTLESGVPSRFSGSGSGTEFTLTISDLECADAATYYCQSAYYSSSSSYANTFGGGTEVVVK
no binding	binds	–	AB1C23 (antibody, V domains shown, Rabbit antibody cloned from a single B cell) VH: QSLEESGGDLVKPGASLTLTCTASGFSFSSTYYMCWVRQAPGKGLEWIACIYTGSTGSTYYASWAKGRFTGSKTSSTTVTLQMTSLTAADTATYFCARGDYTYAYAGGAHVTNYYFDLWGPGTLVTVSS VL: LVMTQTPSSVSAAVGGTVTINCQASQNIYSNLAWYQQKPGQRPKLLIFGASNLESGVPSRFKGSGSGTEFTLTISDLECDDAATYYCQTADYSSSTDWGAFGGGTEVVVK
no binding	binds	–	AB2C128 (antibody, V domains shown, Rabbit antibody cloned from a single B cell) VH: QSLEESGGDLVKPGASLTLTCTASGFSFSSSYWIYWVRQAPGKGLEWIACIYTASRGSIYYASWTKGRFTISKTSSTTVTLQMTSLTAADTATYFCARGPDYTYGYIGDALTRLDLWGQGTLVTVSS VL: AVLTQTPSPVSAAVGGTVSISCQSSQSVYDNNWLAWYQQKAGQPPKLLIYAASTLSSGVPSRFKGSGSGIEFTLTISDVQCDDAATYYCAGGYSSTSDIEDNTFGGGTEVVVK
no binding	binds	–	AB2C135 (antibody, V domains shown, Rabbit antibody cloned from a single B cell) VH: QSLEESGGDLVKPGASLTLTCTASGFSFSSSYWICWVRQAPGKGLEWIACIYTASRDSIYYASWAKGRFTISKTSSTTVTLQMTSLTAADTATYFCARGPYYSYAYIGDALTRLDLWGQGTLVTVSS VL: AVLTQTPSPVSAAVGGTVSISCQSSQSVYDNNWLAWYQQKPGQPPKLLIYEASKLASGVPSRFKGSGSGTQFTLTISGVQCDDASTYYCAGGYSSSSDIEDNTFGGGTEVVVK
no binding	binds	2	AB1C39 (antibody, V domains shown, Rabbit antibody cloned from a single B cell) VH: QSLEESGGDLVKPGASLTLTCTASGFSFSSSYYMCWVRQAPGKGLEWIACIYAGSSGGTYYASWAKGRFTISKTSSTTVTLQMTSLTAADTATYFCARAFSYYYSDGYTGYAYGLWGPGTLVTVSS VL: DIVMTQTPASVEAAVGGTVTIKCQASQSISSYLAWYQQKPGQPPKLLIYRASTLASGVPSRFKGSGSGTQFTLTISDLECADAATYYCQGAYYSSSSSYGFGGGTEVVVK
no binding	binds	1.4	AB1C21 (antibody, V domains shown, Rabbit antibody cloned from a single B cell) VH: QQQLVESGGGLVKPGASLTLTCKASGFSFSSGYDMCWVRQAPGKGLEWIACIYTGDGSTYYASWARGRFTISKTSSTTVTLQMTSLTAADTATYFCAREDVSSGDYTFNLWGPGTLVTVSS VL: YDMTQTPASVEVTVGGTVTIKCQASEDIYSGLAWYQQKPGQRPKLLIYKASNLASGVPSRFSGSGSGTEFTLTISGVECADAATYYCQQGVTYSNVDNTFGGGTEVVVK
no binding	binds	0.6	AB1C15 (antibody, V domains shown, Rabbit antibody cloned from a single B cell) VH: QSLEESGGDLVKPGASLTLTCTASGFSFSSSYYMCWVRQAPGKGLEWIACIYTTYGGTWYASWAKGRFTISKTSSTTVTLQMTSLTDADTATYFCARSSISDVTYFNLWGPGTLVTVSS VL: DIVMTQTPASVEAAVGGTVTIKCQASQSISNYLAWYQQKPGQPPELLIYRASTLESGVPSRFKGSGSGTGFTLTISDLECADAATYYCQSYYDNNNYAFGGGTEVVVK
no binding	binds	–	AB1C28 (antibody, V domains shown, Rabbit antibody cloned from a single B cell) VH: QEQLKESGGDLVKPGASLTLTCTASGFTLSTYWVCWVRQAPGKGLEWIGCIDTVSSGDTYFASWAKGRFTGSKTSSTTVTLQMTSLTAADTATYFCARRTGSGWTLWGPGTLVTVSS VL: LVMTQTPSPVSAAVGGTVTISCQSSQSVYNNNYLAWFQQNPGQPPKLLIYWASKLASGVPSRFKGSGSGTQFTLTISDVQCDDAATYYCLGAYVSNGWYFAFGGGIEVVVK
